Results taken from paper PMC9854190.

Target: HA-Akt, P31749
Test: co-immunoprecipitation (FLAG beads), HA-Akt band quantified
Settings: chain shown with the change, HEK-293 cells expressing D3R, n = 3, read off a plot

HA-Akt, P31749, sequence (P31749 whole entry): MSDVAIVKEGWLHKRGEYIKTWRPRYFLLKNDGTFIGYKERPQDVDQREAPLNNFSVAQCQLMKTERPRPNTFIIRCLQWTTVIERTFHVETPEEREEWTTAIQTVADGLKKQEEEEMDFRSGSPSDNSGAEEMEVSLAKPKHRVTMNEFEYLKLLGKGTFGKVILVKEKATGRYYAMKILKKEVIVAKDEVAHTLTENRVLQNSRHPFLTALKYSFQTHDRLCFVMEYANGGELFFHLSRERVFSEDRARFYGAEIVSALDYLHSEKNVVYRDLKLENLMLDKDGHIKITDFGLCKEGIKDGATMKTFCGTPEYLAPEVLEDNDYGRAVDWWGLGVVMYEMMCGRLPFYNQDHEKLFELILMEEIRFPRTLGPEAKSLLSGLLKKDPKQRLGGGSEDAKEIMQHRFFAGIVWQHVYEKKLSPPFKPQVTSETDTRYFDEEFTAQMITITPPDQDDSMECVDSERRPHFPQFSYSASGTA

other: Folds of Co-IP (Quin +, parent: est. 0.97): 0.74 fold
other: Folds of Co-IP (Veh (Quin -), parent: est. 0.97): 0.9 fold
B1: FLAG-USP33, Q8TEY7-2 T154A (protein)
chain: MSAFRNHCPHLDSVGEITKEDLIQKSLGTCQDCKVQGPNLWACLENRCSYVGCGESQVDHSTIHSQETKHYLTVNLTTLRVWCYACSKEVFLDRKLGTQPSLPHVRQPHQIQENSVQDFKIPSNTTLKTPLVAVFDDLDIEADEEDELRARGLAGLKNIGNTCYMNAALQALSNCPPLTQFFLDCGGLARTDKKPAICKSYLKLMTELWHKSRPGSVVPTTLFQGIKTVNPTFRGYSQQDAQEFLRCLMDLLHEELKEQVMEVEEDPQTITTEETMEEDKSQSDVDFQSCESCSNSDRAENENGSRCFSEDNNETTMLIQDDENNSEMSKDWQKEKMCNKINKVNSEGEFDKDRDSISETVDLNNQETVKVQIHSRASEYITDVHSNDLSTPQILPSNEGVNPRLSASPPKSGNLWPGLAPPHKKAQSASPKRKKQHKKYRSVISDIFDGTIISSVQCLTCDRVSVTLETFQDLSLPIPGKEDLAKLHSSSHPTSIVKAGSCGEAYAPQGWIAFFMEYVKRFVVSCVPSWFWGPVVTLQDCLAAFFARDELKGDNMYSCEKCKKLRNGVKFCKVQNFPEILCIHLKRFRHELMFSTKISTHVSFPLEGLDLQPFLAKDSPAQIVTYDLLSVICHHGTASSGHYIAYCRNNLNNLWYEFDDQSVTEVSESTVQNAEAYVLFYRKSSEEAQKERRRISNLLNIMEPSLLQFYISRQWLNKFKTFAEPGPISNNDFLCIHGGVPPRKAGYIEDLVLMLPQNIWDNLYSRYGGGPAVNHLYICHTCQIEAEKIEKRRKTELEIFIRLNRAFQKEDSPATFYCISMQWFREWESFVKGKDGDPPGPIDNTKIAVTKCGNVMLRQGADSGQISEETWNFLQSIYGGGPEVILRPPVVHVDPDILQAEEKIEVETRSL
other: Folds of Co-IP (Quin w/+ (desensitization condition), parent: est. 1.7): 0.86 fold
